The values below come from paper PMC8536012, “Selection of Specific Nanobodies against Lupine Allergen Lup an 1 for Immunoassay Development” (Foods, 2021).

Sequences and labels used below:
B1: Nb B163 (His- and HA-tagged) (VHH)
VHH: QVQLQESGGGLAQAGGSLTLSCAASGRTFSIPTMGWFRQAPGKEREFVAAIGRTTAYTGSVKGRFTISRDSAKNTVSLQMNSLNIEDTGVYYCASSQSPWSSPPLTENMYAYWGQGTQVTVSS
notes: also called Nb163; source: E. coli WK6 (pMECS), periplasmic, purified (IMAC, SEC)
B2: Nb B66 (His- and HA-tagged) (VHH)
VHH: QVQLQESGGGLVQAGGSLRLSCAASGRTFSSYGIGWFRQAPGKEREFVASISWSGGSTYYADSVKGRFTISRDNAKNTVYLQMNSLKPEDTAVYYCAAVIEAIDFVPVEYDYWGQGTQVTVSS
notes: also called Nb66; source: E. coli WK6 (pMECS), periplasmic, purified (IMAC, SEC)
B3: Nb B83 (His- and HA-tagged) (VHH)
VHH: QVQLQESGGGLVQPGGSLRLSCAASGSIFSRNDMGWYRQAVGEARILVATITSGGVTTYADSVKGRFTISRDNAKNTVYLQMNSLKPEDTAVYYCNTLTNRRNAYWGQGTQVTVSS
notes: also called Nb83; B83HA; source: E. coli WK6 (pMECS), periplasmic, purified (IMAC, SEC)
B4: Nb B69 (His- and HA-tagged) (VHH)
VHH: QVQLQESGGGLVQPGGSLRLSCVSSERTFSPYTMAWFRQAPGKERDFVADIRWGDGTTRYADSVKGRFTISRDNAKNTVFLQTNSLTPEDTAVYYCAHKTWYPRSFQAASYDFWGQGTQVTVSS
notes: also called Nb69; source: E. coli WK6 (pMECS), periplasmic, purified (IMAC, SEC)
B5: Nb B167 (His- and HA-tagged) (VHH)
VHH: QVQLQESGGGLVQAGGSLRLSCAASRRTSRNYDMTWFRQFPGTEREFVAFISWGGSRIYYADSVKGRFTISRDNAKDTVYLQMNSLKPEDTAVYYCAADPRLVRGRYESDYWGQGTQVTVSS
notes: also called Nb167; source: E. coli WK6 (pMECS), periplasmic, purified (IMAC, SEC)
B6: Nb B157 (His- and HA-tagged) (VHH)
VHH: QVQLQESGGGLVQAGGSLRLSCEASGRTNTKYAWGWFRQAPGKEREFVASINWSGTLINYADSVKGRFTISRDDAKNTVYLEMSSLRPEDTAVYSCAVRYYTGTYYYTTSPDNYKHWAQGTQVTVSS
notes: also called Nb157; source: E. coli WK6 (pMECS), periplasmic, purified (IMAC, SEC)
B7: Nb B91 (His- and HA-tagged) (VHH)
VHH: QVQLQESGGGLVQAGDSLRLSCASSGRTFSSYGVGWFRQAPGKEREFVAAISWNGGSASYADSVKGRFTVSRDNAKNTVYLQMNSLQPEDTADYYCAAKVEALYGTDYFRDYDYWGQGTQVTVSS
notes: also called Nb91; source: E. coli WK6 (pMECS), periplasmic, purified (IMAC, SEC)
B8: Nb B42 (His- and HA-tagged) (VHH)
VHH: QVQLQESGGGLVQAGGSLRLSCAASGRTFSSYAMGWFRQAPGKEREFVAAISWSGGSTYYADSVKGRFTISRDNAKNTVYLQMNSLKPEDTAVYYCAVDQWILEVNAAFQADYWGQGTQVTVSS
notes: also called Nb42; source: E. coli WK6 (pMECS), periplasmic, purified (IMAC, SEC)
B9: Nb B165 (His- and HA-tagged) (VHH)
VHH: QVQLQESGGGLVQAGGSLRLSCAASTRTFSSDAMGWFRQAPGKEREFVAAISISTYYADSVKGRFTISRDNAKNTMYLQMNRLKPEDTAVYYCAVKPFYGGIRYPNEYPYWGQGTQVTVSS
notes: also called Nb165; source: E. coli WK6 (pMECS), periplasmic, purified (IMAC, SEC)
B10: Nb B187 (His- and HA-tagged) (VHH)
VHH: QVQLQESGGGLVQAGGSLRLSCAASGRTFSGARMGWFRQAPGKEREFVAAIRWITGSTYYTDSVKGRFTISRDIAKNTQYLQMNSLKPEDTARYYCAAGEYYGGSYSDTEKYDYWGQGTQVTVSS
notes: From an immune alpaca library raised against crude lupine protein extract; also called Nb187; B187HA; source: E. coli WK6 (pMECS), periplasmic, purified (IMAC, SEC)
B11: Nb B40 (His- and HA-tagged) (VHH)
VHH: QVQLQESGGGLVQAGESLRLSCATTEHANQMYAVGWFRQAPGKEREFVASINWSGTRTEHAESVKGRFTISKINPHDTVYLQMNSLKPEDTAVYACAARYYSGTYTKTDNSNDYDYWGQGTQVTVSS
notes: Detecting nanobody of the final sandwich ELISA; also called Nb40; B40HA; source: E. coli WK6 (pMECS), periplasmic, purified (IMAC, SEC)
B12: Nb B50 (His- and HA-tagged) (VHH)
VHH: QVQLQESGGGLVQAEGSLRLSCTVSGRTFSRDAMGWFRRPPGKEREFVAAISWNGASTSYADSVKGRFTVSRDNAKNTSLLQMNSLKPEDTAVYYCATYWSSAIPPLAAATSATYWGQGTQVTVSS
notes: also called Nb50; source: E. coli WK6 (pMECS), periplasmic, purified (IMAC, SEC)

In this experiment the target is T1, Lup an 1 (Lupinus angustifolius (by the …, UniProt F5B8W3)).
T1 construct: Lup an 1, lupin β-conglutin, a 7S seed storage globulin of the vicilin-like proteins; found by LC-MS/MS of the ~55 kDa band immunocaptured from crude lupine extract; UniProt F5B8W3.1; size distribution printed as 55 to 61 kDa; Never purified: it stood in a crude lupine protein extract in every experiment; Seen as a band of ~55 kDa; also called lupin β-conglutin; lupine allergen Lup an 1; source: …
T1 sequence (F5B8W3 31-637): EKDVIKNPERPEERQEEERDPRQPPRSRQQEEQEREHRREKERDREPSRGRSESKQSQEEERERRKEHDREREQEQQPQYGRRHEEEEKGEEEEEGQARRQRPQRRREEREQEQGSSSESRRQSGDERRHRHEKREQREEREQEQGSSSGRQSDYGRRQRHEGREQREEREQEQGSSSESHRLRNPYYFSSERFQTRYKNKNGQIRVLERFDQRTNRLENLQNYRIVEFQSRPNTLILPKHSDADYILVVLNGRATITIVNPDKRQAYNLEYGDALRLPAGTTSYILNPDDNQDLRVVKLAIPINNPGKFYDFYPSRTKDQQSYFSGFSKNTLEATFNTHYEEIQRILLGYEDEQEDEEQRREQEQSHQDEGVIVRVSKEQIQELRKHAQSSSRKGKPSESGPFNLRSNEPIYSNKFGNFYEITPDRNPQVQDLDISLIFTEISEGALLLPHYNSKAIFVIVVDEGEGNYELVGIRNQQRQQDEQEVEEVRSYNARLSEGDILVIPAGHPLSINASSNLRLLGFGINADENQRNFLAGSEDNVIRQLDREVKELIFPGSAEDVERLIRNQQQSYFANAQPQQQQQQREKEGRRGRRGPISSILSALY
In words: ELISA; crude lupine extract (50 μg/mL) coated overnight at 4 °C; Nbs serially diluted in PBS, 1 h at room temperature; detected by mouse anti-His IgG and HRP goat anti-mouse IgG; apparent affinity = concentration at half of the maximum signal. The following applies: one partner purified.
Take B1: the 50% effective concentration (EC50) (commonly the concentration at which the effect is half-maximal) was 45 nM.

As to B2, the half-maximal effective concentration (EC50) was 180 nM.

On to B3, for which the concentration giving a half-maximal response (EC50) is 1 nM.

Turning to B4, the concentration giving a half-maximal response (EC50) was 325 nM.

With B5, the concentration for a half-maximal effect (EC50) worked out at 13 nM.

With B6, the EC50 turned out to be 680 nM.

Turning to B7, the EC50 was found to be 9 nM.

In the case of B8, the EC50 is 24 nM.

Turning to B9, the EC50 was 31 nM.

Turning to B10, the EC50 is 14 nM.

In the case of B11, the EC50 came to 8 nM.

On to B12, for which the half-maximal effective concentration (EC50) was 16 nM.
